US20220211858A1, “TUBULAR SUPRAMOLECULAR POLYMERS” (priority 2019, published 2022)

Key:
[1] = Encapsulation of hydrophobic dyes and paclitaxel in TT 1 nanotubes; type: physicochemical
Protocol: A 300 μM in water stock solution of TT 1 prodrug was prepared and aged overnight to form nanotubes. Hydrophobic dyes, such as Coumarin 6 (C6), Nile Red, Rose Bengal lactone (Rose), and IR 780 iodide (IR 780), were dissolved in acetonitrile at a concentration of 600 μM (FIG. 18). To perform the dye encapsulation experiments, 400 μL of the pre-formed nanotube solution and 200 μL of the corresponding dye solution in acetonitrile were mixed together to make a final solution of 600 μL (H2O/MeCN=2:1, v/v) in which the concentration of both prodrug and dye was 200 μM (prodrug/dye=1:1, mol/mol). The resulting mixed nanotube and dye solution was aged overnight to allow the penetration of dye molecules into the nanotube structures and then directly lyophilized to fully remove all the solvents. Next, the lyophilized powder was reconstituted to a final prodrug concentration of 200 μM by the addition of 600 μL of water and vortexing for 60 s. The solutions were aged for at least 6 h before being centrifuged (6000 rpm, 5 min) to remove any precipitated free dye. The supernatant was collected for further study. The dye loading capacity was calculated from the percentage of dye in the supernatant to the sum of encapsulated dye and added prodrugs. To get a higher resolution of dye-doped TT 1 solution, the solutions imaged in FIG. 4A were concentrated to a concentration of 800 μM.
In addition to functional dye molecules, the hydrophobic drug paclitaxel (PTX) was also used as a model compound to dope the TT 1 nanotubes, following the procedure described in the paragraph describing CD measurements of TT solutions above. After encapsulation, analytical HPLC was used to analyze the components of drug-doped nanotubes, monitoring the absorption at 220 nm. […] The concentrations of both nanotube and PTX were determined by comparing the area under the curve of each component with its standard calibration curve, yielding an encapsulation efficiency around 11%. The CD spectrum of PTX-doped nanotube was also recorded, showing a slight decrease in intensity compared with a pure nanotube solution at the same concentration (FIG. 17B).

[2] = Drug release from TT 1 nanotubes with or without GSH; type: physicochemical; conditions: 200 μM
Protocol: The release of free CPT from TT 1 nanotubes was evaluated in the presence or absence of GSH. Stock solutions of 400 μM of TT 1 in deionized water were prepared and diluted to 200 μM with 20 mM PBS buffer with or without GSH (20 mM). Three replicate experiments were prepared together for both conditions. The solutions were incubated at 37° C. and samples were collected at 0 min, 10 min, 20 min, 30 min, 1 h, 2 h, 4 h, 6 h, 8 h, 12 h and 24 h. For each collected sample, the reductive release was halted by acidification of the solution through the addition of 0.2 μL of 2M HCl. Samples were then frozen with liquid nitrogen and stored at −30° C. until analysis. The amount of released CPT was monitored by RP-HPLC using the following conditions: Varian Pursuit XRs C18 (5 μm, 150×4.6 mm); 362 nm detection wavelength; 1 ml/min flow rate; the gradient began at 90% of mobile phase A (0.1% aqueous TFA) and 10% of mobile phase B (acetonitrile containing 0.1% TFA) increasing to 90% mobile phase B by 15 min and held for another 1 min before decreasing to the initial solvent composition at 20 minutes. Selected time points were characterized and data were plotted as a percentage of the total expected CPT concentration.

[3] = TEM / cryo-TEM imaging of self-assembled nanostructures (dimensions); type: physicochemical
Protocol: About 200 μM stock solutions of corresponding TTs in water were prepared by dissolution of the lyophilized powders. After aging overnight, TEM samples were prepared by depositing 7 μL of the appropriate solution onto a carbon-coated copper grid (Electron Microscopy Services, Hatfield, Pa., USA), wicking away the excess solution with a small piece of filter paper. Next, 7 μL of a 2 wt % uranyl acetate aqueous solution was deposited on the surface for 30 seconds, wicking away the excess solution with filter paper. The grids were then air-dried overnight at room temperature prior to imaging. Bright-field TEM imaging was performed using an FEI Tecnai 12 TWIN Transmission Electron Microscope operated at an acceleration voltage of 100 kV. All TEM images were acquired by a SIS Megaview III wide-angle CCD camera or 16 bit 2K×2K FEI Eagle bottom mount camera.
Cryo-TEM imaging was performed using higher sample concentrations of 800 μM (compared with 200 μM for conventional TEM imaging). Extended imaging times can result in damage to the vitreous ice film caused by the electron beam and so higher concentrations can allow a more rapid visualization that reduces this likelihood. About 6 μL of the appropriate solution was dropped onto a lacey carbon-film-supported TEM copper grid (Electron Microscopy Services, Hatfield, Pa., USA). All the TEM grids used for cryo-TEM imaging were pretreated with plasma air to render the lacey carbon film hydrophilic. A thin film of the sample solution was produced using a Vitrobot with a controlled humidity chamber (FEI). After loading of the sample solution, the lacey carbon grid was blotted using preset parameters and plunged instantly into a liquid ethane reservoir precooled by liquid nitrogen. The vitrified samples were then transferred to a cryo-holder and cryo-transfer stage that was cooled by liquid nitrogen. To prevent sublimation of vitreous water, the cryo-holder temperature was maintained below −170° C. during the imaging process. All images were recorded by a Tecnai 12 microscope with a cryo-holder, and the images were acquired by a 16 bit 2K×2K FEI Eagle bottom mount camera.
Self-Assembly of SAPDs from TT1. To study the self-assembly behavior of the SAPDs, we directly dissolved the lyophilized powders in deionized water at a concentration of 2 mM and neutral pH.

[4] = Maximum tolerated dose (MTD) dose escalation study; design: species or system athymic nude mice; conditions: female, athymic nude, mouse, in vivo, intravenous, three doses, four days a dose; ½ of single-injection MTD; read-out: MTD of multiple injections

In the case of `CC[C@]1(OC(=O)OCCSSC[C@@H](NC(C)=O)C(=O)N[C@@H](CCCCNC(=O)[C@@H](CSSCCOC(=O)O[C@]2(CC)C(=O)OCc3c2cc2n(c3=O)Cc3cc4ccccc4nc3-2)NC(C)=O)C(=O)N[C@@H](CCCCNC(=O)CCOCCOCCOCCOCCOC)C(=O)N[C@@H](CCCCNC(=O)CCOCCOCCOCCOCCOC)C(N)=O)C(=O)OCc2c1cc1n(c2=O)Cc2cc3ccccc3nc2-1` [TT 1], the dye loading content ([1]; Coumarin 6 (C6) in TT 1 assemblies) is reported as 4.5%, the dye loading content ([1]; IR-780 in TT 1 assemblies) is reported as 10.3% and the dye loading content ([1]; Nile Red in TT 1 assemblies) is reported as 4.4%. The dye loading content ([1]; Rose Bengal lactone in TT 1 assemblies) was 14.8%, the “conjugated CPT released” value ([2]; 10 mM GSH, 37° C., by 6 h) was roughly 100% and the “conjugates degraded (hydrolysis)” value ([2]; without GSH, 24 h) was “less than 10%”. For the same compound, the “wall thickness measured from toroids” value ([3]; TT 1 nanotubes, TEM) was 3.0±0.5 nm, the hollow interior diameter ([3]; TT 1 nanotubes, toroids, TEM) was 2.5±0.6 nm and the “nanotube diameter after loading” value ([3]; loaded with Coumarin 6, TEM) was 9.8±1.4 nm. For the same compound, the “nanotube diameter after loading” value ([3]; loaded with IR 780, TEM) was 10.2±0.9 nm, the “nanotube diameter after loading” value ([3]; loaded with Nile Red, TEM) was 9.6±1.2 nm and the “nanotube diameter after loading” value ([3]; loaded with Rose Bengal lactone, TEM) was 10.7±1.4 nm. The “diameter of PTX-doped nanotubes” value ([3]; paclitaxel-doped, 200 μM, TEM) was 10.6±0.9 nm, the “Diameters measured by conventional TEM” value ([3]; self-assembled nanotubes in water, 200 μM, n>40) was 8.8 ± 0.8 nm and the MTD [4] was 12 mg/kg.
